Source: US20140120543A1 (INSTITUTE GUSTAVE ROUSSY, published 2014)
Values belong to the binder of their own block, whether it stands above or below them.

Legend:
[1] = biological target: T1, DNA repair endonuclease XPF (human, UniProt Q92889 1-916); assay: proximity ligation assay (Duolink) in ERCC1-deficient A549 cells re-expressing one isoform
T1 construct: Endogenous protein of the human A549 cell line, inside fixed cells; also called encoded by the ERCC4 gene
T1 sequence: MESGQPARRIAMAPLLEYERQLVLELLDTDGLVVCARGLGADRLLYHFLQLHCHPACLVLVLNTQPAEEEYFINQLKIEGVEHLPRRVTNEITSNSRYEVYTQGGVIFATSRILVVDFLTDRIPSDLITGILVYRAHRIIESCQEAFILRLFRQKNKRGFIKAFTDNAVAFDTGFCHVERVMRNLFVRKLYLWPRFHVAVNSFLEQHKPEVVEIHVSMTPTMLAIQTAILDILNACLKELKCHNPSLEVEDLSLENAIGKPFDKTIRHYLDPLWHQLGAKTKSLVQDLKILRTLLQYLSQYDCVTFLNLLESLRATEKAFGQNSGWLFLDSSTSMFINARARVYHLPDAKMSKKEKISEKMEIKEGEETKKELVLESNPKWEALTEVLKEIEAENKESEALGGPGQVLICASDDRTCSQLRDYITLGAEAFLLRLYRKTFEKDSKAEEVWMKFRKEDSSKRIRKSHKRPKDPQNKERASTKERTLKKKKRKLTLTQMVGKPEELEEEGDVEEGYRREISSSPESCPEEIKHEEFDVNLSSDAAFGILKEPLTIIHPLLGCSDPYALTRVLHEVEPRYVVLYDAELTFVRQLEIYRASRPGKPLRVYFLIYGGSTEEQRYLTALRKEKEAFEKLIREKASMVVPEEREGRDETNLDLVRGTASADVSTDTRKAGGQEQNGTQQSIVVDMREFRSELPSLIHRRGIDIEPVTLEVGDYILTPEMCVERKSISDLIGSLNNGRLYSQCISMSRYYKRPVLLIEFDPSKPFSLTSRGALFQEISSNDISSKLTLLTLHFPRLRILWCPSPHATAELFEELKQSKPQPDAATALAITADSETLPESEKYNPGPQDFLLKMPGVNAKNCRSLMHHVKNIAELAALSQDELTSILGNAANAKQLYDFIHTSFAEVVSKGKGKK
Method: (§1) Protein interactions were studied using the Duolink II proximity ligation assays (PLA) kit (Olink, Uppsala, Sweden). Coverslips were processed according to the manufacturer's instructions. In brief, the cells were fixed with methanol, permeabilized with triton, stained with the primary antibodies, and then incubated with the secondary oligonucleotide-linked antibodies. The oligonucleotides were hybridized, ligated, amplified, and detected using a fluorescent probe.
Using proximity ligation assays (PLA-Duolink) technology, we investigated the binding ability of ERCC1 isoforms with ERCC1 interacting proteins.

kinesin Eg5 = biological target: T2, kinesin Eg5 (human, UniProt P52732 1-1056); assay: proximity ligation assay (Duolink), ERCC1 detected with FL297 antibody
T2 construct: Endogenous protein of the human A549 cell line, inside fixed cells; also called encoded by the KIF11 gene
T2 sequence: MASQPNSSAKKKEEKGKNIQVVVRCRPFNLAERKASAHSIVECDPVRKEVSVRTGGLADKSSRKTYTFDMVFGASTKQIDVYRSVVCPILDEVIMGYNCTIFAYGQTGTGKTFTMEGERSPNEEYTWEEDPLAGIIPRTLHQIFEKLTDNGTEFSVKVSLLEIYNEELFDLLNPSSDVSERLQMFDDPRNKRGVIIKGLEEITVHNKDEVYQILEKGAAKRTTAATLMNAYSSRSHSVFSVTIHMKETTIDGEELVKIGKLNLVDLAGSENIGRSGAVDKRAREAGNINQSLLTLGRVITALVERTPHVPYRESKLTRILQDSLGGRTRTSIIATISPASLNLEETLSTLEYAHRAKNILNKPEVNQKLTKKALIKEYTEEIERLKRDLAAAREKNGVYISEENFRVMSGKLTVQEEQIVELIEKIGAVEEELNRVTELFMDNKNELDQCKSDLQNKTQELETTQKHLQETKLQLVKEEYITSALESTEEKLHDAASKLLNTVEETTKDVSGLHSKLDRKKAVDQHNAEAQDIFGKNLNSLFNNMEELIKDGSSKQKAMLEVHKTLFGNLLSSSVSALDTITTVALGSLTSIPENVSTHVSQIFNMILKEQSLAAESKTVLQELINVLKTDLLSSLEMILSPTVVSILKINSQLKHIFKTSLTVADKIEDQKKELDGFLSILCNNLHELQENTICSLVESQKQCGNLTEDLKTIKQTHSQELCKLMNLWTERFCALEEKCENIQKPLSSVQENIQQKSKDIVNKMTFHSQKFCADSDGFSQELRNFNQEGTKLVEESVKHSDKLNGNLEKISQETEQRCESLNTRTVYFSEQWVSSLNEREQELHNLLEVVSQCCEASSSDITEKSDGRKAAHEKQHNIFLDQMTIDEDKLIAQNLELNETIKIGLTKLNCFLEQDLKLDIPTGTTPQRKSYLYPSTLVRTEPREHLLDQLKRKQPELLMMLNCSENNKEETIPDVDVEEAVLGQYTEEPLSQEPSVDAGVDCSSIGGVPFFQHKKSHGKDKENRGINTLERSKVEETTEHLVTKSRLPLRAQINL
Method: (§2) ERCC1 was detected using FL297 antibody.
as §1

[2] = biological target: T3, protein TRF2 (telomeric repeat-binding factor 2) (human, UniProt Q15554 1-542); assay: as above
T3 construct: Endogenous protein of the human A549 cell line, inside fixed cells; also called encoded by the TERF2 gene
T3 sequence: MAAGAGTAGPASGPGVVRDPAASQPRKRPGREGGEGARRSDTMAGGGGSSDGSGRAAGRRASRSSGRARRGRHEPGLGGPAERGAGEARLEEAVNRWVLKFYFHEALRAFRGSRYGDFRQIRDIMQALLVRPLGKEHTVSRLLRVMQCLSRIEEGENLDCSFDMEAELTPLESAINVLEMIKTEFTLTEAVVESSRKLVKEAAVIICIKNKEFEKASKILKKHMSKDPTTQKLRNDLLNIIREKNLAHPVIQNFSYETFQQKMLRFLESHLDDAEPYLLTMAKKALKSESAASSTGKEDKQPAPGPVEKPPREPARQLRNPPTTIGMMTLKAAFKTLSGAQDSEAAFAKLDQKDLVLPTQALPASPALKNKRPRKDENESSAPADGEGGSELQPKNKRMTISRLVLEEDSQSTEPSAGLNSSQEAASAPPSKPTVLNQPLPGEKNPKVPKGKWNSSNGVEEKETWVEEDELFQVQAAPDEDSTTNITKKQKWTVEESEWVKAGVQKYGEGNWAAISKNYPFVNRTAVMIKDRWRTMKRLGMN
Method: as §2, §1

[3] = biological target: T4, Fanconi anemia Group G protein FANC G (human, UniProt O15287 1-622); assay: as above
T4 construct: Endogenous protein of the human A549 cell line, inside fixed cells; also called Fanconi anemia complementation group G
T4 sequence: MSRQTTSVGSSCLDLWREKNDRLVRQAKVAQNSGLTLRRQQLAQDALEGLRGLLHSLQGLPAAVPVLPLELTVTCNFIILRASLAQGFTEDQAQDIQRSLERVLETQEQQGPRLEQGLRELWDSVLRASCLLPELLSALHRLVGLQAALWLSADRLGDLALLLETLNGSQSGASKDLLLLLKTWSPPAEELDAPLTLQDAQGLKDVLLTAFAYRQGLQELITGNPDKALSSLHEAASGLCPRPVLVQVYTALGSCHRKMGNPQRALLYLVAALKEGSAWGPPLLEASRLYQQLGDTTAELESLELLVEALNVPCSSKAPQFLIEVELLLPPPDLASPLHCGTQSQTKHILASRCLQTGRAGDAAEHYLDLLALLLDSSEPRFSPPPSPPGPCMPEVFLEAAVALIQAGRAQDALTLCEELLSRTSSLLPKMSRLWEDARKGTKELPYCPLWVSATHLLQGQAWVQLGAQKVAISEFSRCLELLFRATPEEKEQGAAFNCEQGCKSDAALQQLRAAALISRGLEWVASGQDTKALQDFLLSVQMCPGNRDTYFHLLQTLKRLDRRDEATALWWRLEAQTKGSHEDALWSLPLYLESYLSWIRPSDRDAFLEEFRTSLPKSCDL
Method: as §2, §1

B1: ERCC1-204 isoform (other)
chain: MDPGKDKEGVPQPSGPPARKKFVIPLDEDEVPPGVRGNPVLKFVRNVPWEFGDVIPDYVLGQSTCALFLSLRYHNLHPDYIHGRLQSLGKNFALRVLLVQVDVKDPQQALKELAKMCILADCTLILAWSPEEAGRYLETYKAYEQKPADLLMEKLEQDFVSRVTECLTTVKSVNKTDSQTLLTTFGSLEQLIAASREDLALCPGLGPQKARRLFDVLHEPFLKVP
notes: Re-expressed in ERCC1-deficient A549 clone 216; Detected inside fixed, permeabilised cells by PLA; also called isoform 204
binding result [1]: no binding

B3: ERCC1-202 isoform (isoform 202 of the ERCC1 protein) (other)
chain: MDPGKDKEGVPQPSGPPARKKFVIPLDEDEVPPGVAKPLFRSTQSLPTVDTSAQAAPQTYAEYAISQPLEGAGATCPTGSEPLAGETPNQALKPGAKSNSIIVSPRQRGNPVLKFVRNVPWEFGDVIPDYVLGQSTCALFLSLRYHNLHPDYIHGRLQSLGKNFALRVLLVQVDVKDPQQALKELAKMCILADCTLILAWSPEEAGRYLETYKAYEQKPADLLMEKLEQDFVSRVTECLTTVKSVNKTDSQTLLTTFGSLEQLIAASREDLALCPGLGPQKARRLFDVLHEPFLKVP
notes: Re-expressed in ERCC1-deficient A549 clone 216; Detected inside fixed, permeabilised cells by PLA, not on the cell surface
binding result (kinesin Eg5): binds
binding result [2]: binds
binding result [3]: binds

Further lines, results first:

binding result [1]: no binding
B2: ERCC1-203 isoform (other)
chain: MDPGKDKEGVPQPSGPPARKKFVIPLDEDEVPPGVAKPLFRSTQSLPTVDTSAQAAPQTYAEYAISQPLEGAGATCPTGSEPLAGETPNQALKPGAKSNSIIVSPRQRGNPVLKFVRNVPWEFGDVIPDYVLGQSTCALFLSLRYHNLHPDYIHGRLQSLGKNFALRVLLVQVDVKDPQQALKELAKMCILADCTLILAWSPEEAGRYLETYKAYEQKPADLLMEKLEQDFVSRSLEQLIAASREDLALCPGLGPQKARRLFDVLHEPFLKVP
notes: Re-expressed in ERCC1-deficient A549 clone 216; Detected inside fixed, permeabilised cells by PLA; also called isoform 203

binding result [1]: no binding
B4: ERCC1-201 isoform (other)
chain: MDPGKDKEGVPQPSGPPARKKFVIPLDEDEVPPGVAKPLFRSTQSLPTVDTSAQAAPQTYAEYAISQPLEGAGATCPTGSEPLAGETPNQALKPGAKSNSIIVSPRQRGNPVLKFVRNVPWEFGDVIPDYVLGQSTCALFLSLRYHNLHPDYIHGRLQSLGKNFALRVLLVQVDVKDPQQALKELAKMCILADCTLILAWSPEEAGRYLETYKAYEQKPADLLMEKLEQDFVSRVTECLTTVKSVNKTDSQTLLTTFGSLEQLIAASREDLALCPGLGPQKVRALGKNPRSWGKERAPNKHNLRPQSFKVKKEPKTRHSGFRL
notes: Re-expressed in ERCC1-deficient A549 clone 216; Detected inside fixed, permeabilised cells by PLA; also called isoform 201
